Test [1] deals with All Septins. The experiment in a line: HaloLink pulldown from unperturbed A375 cells, LC-MS/MS.
In test [2] the target is All Septins. The test is described as follows: HaloLink pulldown from MV3 cells, LC-MS/MS.

B1: mouse SEPT6-HALO (protein, UniProt Q9R1T4 2-434, looked up, not shown: small tags and cut ends; large carriers)
chain: AAADIARQVGEDCRTVPLAGHVGFDSLPDQLVNKSVSQGFCFNILCVGETGLGKSTLMDTLFNTKFEGEPATHTQPGVQLQSNTYDLQESNVGLKLTIVSTVGFGDQINKEDSYKPIVEFIDAQFEAYLQEELKIRRVLHSYHDSRIHVCLYFIAPTGHSLKSLDLVTMKKLDSKVNIIPVIAKSDAISKSELAKFKIKITSELVSNGVQIYQFPTDDESVSEINGTMNAHLPFAVVGSTEEVKIGNKMMRARQYPWGTVQVENEAHCDFVKLREMLIRVNMEDLREQTHARHYELYRRCKLEEMGFKDTDPDSKPFSLQETYEAKRNEFLGELQKKEEEMRQMFVQRVKEKEAELKEAEKELHEKFDRLKKLHQEEKKKLEDKKKCLDEEMNAFKQRKAAAELLQSQGSQAGGSQTLKRDKEKKNNPWLCIE
For B1, in test [1], the % of total protein abundance was 7.04%; the fold change between lysate and pulldown (% of total protein abundance) turned out to be 56 fold. Further, in test [2], the % of total protein abundance worked out at 8.06%; the fold change between lysate and pulldown (% of total protein abundance) stood at 35.9 fold.

For the origin of these results see patent US20250268980A1, “AN ANTICANCER THERAPY TARGETING RAS AND OTHER ONCOGENIC SIGNALS BY INHIBITION OF DYNAMIC BLEBBING AND/OR SEPTINS” (THE BOARD OF REGENTS OF THE UNIVERSITY OF TEXAS SYSTEM, priority 2022, published 2025).
